The source of these data is the DeepSol protein solubility set.

The nature of this data set: soluble on expression in E. coli; label from the status in PepcDB or PDB records.
Regarding “AMYEKPPVEKLIEELRQLKEKAYKGGGDERIQFQHSKGKLTARERLALLFDDGKFNEIMTFATTRATEFGLDKQRFYGDGVVTGWGKVDGRTVFAYAQDFTVLGGSLGETHANKIVRAYELALKVGAPVVGINDSGGARIQEGALSLEGYGAVFKMNVMASGVIPQITIMAGPAAGGAVYSPALTDFIIMIKGDAYYMFVTGPEITKVVLGEEVSFQDLGGAVVHATKSGVVHFMVDSEQEAINLTKRLLSYLPSNNMEEPPYIDTGDPADRDATGVEQIVPNDAAKPYNMREIIYKIVDNGEFLEVHKHWAQNIIVGFARIAGNVVGIVANNPEEFGGSIDIDAADKAARFIRFCDAFNIPLISLVDTPGYVPGTDQEYKGIIRHGAKMLYAFAEATVPKITVIVRKSYGGAHIAMSIKSLGADLVYAWPTAEIAVTGPEGAVRILYRKEIQQASNPDDVLKQRIAEYRKLFANPYWAAEKGLVDDVIEPKDTRRVIVAGLEMLKTKREYRYPKKHGNIPL”, the “soluble on expression in E. coli” value is recorded as “soluble”.

As to “ANAFLEELRPGSLERECKEEQCSFEEAREIFKDAERTKLFWISYSDGDQCASSPCQNGGSCKDQLQSYICFCLPAFEGRNCETHKDDQLICVNENGGCEQYCSDHTGTKRSCRCHEGYSLLADGVSCTPTVEYPCGKIPILEKRNASKPQGR”, the “soluble on expression in E. coli” value is given as “soluble”. Take “ANIIANTALTIGATKVDVKEITPELLASLNEIGGSEANVASGYHAIEFLLWGQDLNGTKAGAGARSYTDYLQGKACTNNHCDRRAQYLKAAAQLLVTDLEWMEKQWASGEKDNYRQQLLSESAENGLRKMLFGMGSLSLGELAGERMKVALEANSTEDEHDCFSDNTHNSHYYNEQGIYNIYTGSYTRADGSELKGPSLYQLVAEKDANAAKEILQQFEAARTQVGELVTAAEKNNQHFDQLIAADNAAGHAIINQAIMALVAQTGSIERAAGIIGIDNLNPDTADHEF”: the “soluble on expression in E. coli” value is “not soluble”.

With “APAHADHQITKRTDAENMYNTIQFLSQAPRVAGSPEELKAVRYIEQQFKSYGYHVEVQPFQFEGYTAPSEVTLKIGTEKKEGEAFTYSPNSDVTAELVYVGLGTTADVAGKDLNGKIALIQRGNISFADKVRNAAKQGAKAVIIYNNTDGKLNGTLGGSDASFVAAVGITKQEGDALAANLRAGEKITATVKVAGAEVKTLTSHNVIATKKPDANKKNTNDIIIIGSHHDSVEKAPGANDDASGVAVTLELARVMSKLKTDTELRFITFGAEENGLIGSKKYAASLSEDEIKRTIGMFQLDMVGSKDAGDLIMYTIDGKKNRVTDLGAAASSRLSGVLPYGQEGRSDHESFHALGIPAALFIHAPVEPWYHTPNDTLDKISKEKLDNVADIVGSAVYQAARPGELVIEPIDYPRRNVELQN”, the “soluble on expression in E. coli” value is “soluble”.

Consider “APLFIKNVNGIKVAILSYAYGFNGLESNLTEKEIANHLSNLDEKRMKVEIERAEKEADVTVIMPQMGVEYRLEPTDEQVKLYHKMIDWGADIIFGGHPHVVEPSEVVKKDGQQKLIIYSMGNFISNQRIETVDGVDNAAWTERSVLMDVTLEKKNCQTTIKTAQAHPTWVNRTPKGTISPEGYPLYTYQTYILEDFIKGRKYRNKLDEETKERIDTAYKEMNAHVNL”, for which the “soluble on expression in E. coli” value is “not soluble”.

Consider “APSYRVKRADIATCTEAAVVNAANARGTVGDGVCRAVAKKWPSAFKGAATPVGTIKTVMCGSYPVIHAVAPNFSATTEAEGDRELAAVYRAVAAEVNRLSLSSVAIPLLSTGVFSGGRDRLQQSLNHLFTAMDATDADVTIYCRDKSWEKKIQEAIDMRTAVELLNDDVELTTDLVRVHPDSSLVGRKGYSTTDGSLYSYFEGTKFNQAAIDMAEILTLWPRLQEANERICLYALGETMDNIGSKCPVNDSDSSTPPRTVPCLCRYAMTAERIARLRSHQVKSMVVCSSFPLPKYHVDGVQKVKCEKVLLFDPTVPSVVSPRKYAASTTDHSDRSLRGFDLDWTTDSSSTASDTMSLPSLQSCDIDSIYEPMAPIVVTADVHPEPAGIADLAADVHPEPADHVDLENPIPPPRPKRAAYLASRAAERPVPAPRKPTPAPRTAFRNKLPLTFGDFDEHEVDALASGITFGDFDDVLRLGRAGA”, for which the “soluble on expression in E. coli” value is listed as “not soluble”. Take “AQAALKDGTYSVDYTVLQGDSDSVSMANDYFDKPATVTVNGGKSTVSLQVNHSKWITGLWVEGNAVSVTSKNTASDTRKVSFPVSTLSSPVNAKIKVDIDDDGLNYHHEYQIQLRFDEGAVKSSGAAV”: the “soluble on expression in E. coli” value is “not soluble”. In the case of “AQAFVNSKIQPGKVVVFIKPTCPFCRKTQELLSQLPFKEGLLEFVDITATSDTNEIQDYLQQLTGARTVPRVFIGKECIGGCTDLESMHKRGELLTRLQQVGAVK” it was “soluble”. In the case of “AQSVPWGISRVQAPAAHNRGLTGSGVKVAVLDTGISTHPDLNIRGGASFVPGEPSTQDGNGHGTHVAGTIAALNNSIGVLGVAPNAELYAVKVLGASGSGSVSSIAQGLEWAGNNGMHVANLSLGSPSPSATLEQAVNSATSRGVLVVAASGNSGAGSISYPARYANAMAVGATDQNNNRASFSQYGAGLDIVAPGVNVQSTYPGSTYASLNGTSMATPHVAGAAALVKQKNPSWSNVQIRNHLKNTATSLGSTNLYGSGLVNAEAATR” it was “soluble”. As to “ARGVKGHVRVLANTTAMTEFMPAVLARYLAAHPDVNVELRERLSYLVVRAVADGSADIGVVAGCAPDQKLQFIPYRKDRLVVVTPAGHRLAAEESVAFADTLADDYVGLSEWSAIHPFLVQAAASLGRTFKFRVEVGNFEAVCRMIESG”, the “soluble on expression in E. coli” value was “not soluble”. In the case of “ARQENPCGPCSERRKHLFVQDPQTCKCSCKNTDSRCKARQLELNERTCRCDKPRR” it was “soluble”; in that of “ARRLYVGNIPFGITEEAMMDFFNAQMRLGGLTQAPGNPVLAVQINQDKNFAFLEFRSVDETTQAMAFDGIIFQGQSLKIRRPHDYQPLPG”, “soluble”; in that of “ARVDQTPQTITKETGESLTINCVLRDSNCALSSTYWYRKKSGSTNEESISKGGRYVETVNSGSKSFSLRINDLTVEDSGTYRCKPESRYGSYDAECAALNDQYGGGTVVTVNAAAHHHHHH”, “soluble”. The value for “ARVNAQTGAPDILTSLDEKSVSYDTVMDKYWLSQYVIARETYDWYTLQKDYETVGMLSSPSEGQSYASQFQGDKALDKQYGSNVRTSVTIVSIVPNGKGIGTVRFAKTTKRTNETGDGETTHWIATIGYQYVNPSLMSESARLTNPLGFNVTSYRVDPEMGVVQ” was “soluble”; that for “ASGSSFASTRKLLNRHSLHTVCRSAMCPNLHECWSKGTATFLLLGNVCTRSCRFCAVGTECRPAMPDPEEPSKIAEAVKTMKLRHAVLTSVNRDDLADGGATHWVETIRAIREVNPGVSLECLIPDFSGNEQSLDLVMQELPEVLNHNIETVPSRYAAVRPQALYERSLAVIERAKRQFRLATKSGMMVGMGETEEELEASLHDLRGHGCDMVTIGQYLQPTAAHLPVSRYVTPEEFERYREIALDAGFRHVQSGPFVRSSYHAEAFEPVEK” was “not soluble”; that for “ASLFPPGLHAIYGECRRLYPDQPNPLQVTAIVKYWLGGPDPLDYVSMYRNVGSPSANIPEHWHYISFGLSDLYGDNRVHEFTGTDGPSGFGFELTFRLKRETGESAPPTWPAELMQGLARYVFQSENTFCSGDHVSWHSPLDNSESRIQHMLLTEDPQMQPVQTPFGVVTFLQIVGVCTEELHSAQQWNGQGILELLRTVPIAGGPWLITDMRRGETIFEIDPHLQERVDKGIETD” was “soluble”.

Consider “ASMTGGQQMGRGSGSEFMENETHYAEAVIDNGAFGTRTIRFETGRLARQAAGSAVAYLDDDTMVLSATTASKNPKDQLDFFPLTVDVEERMYAAGKIPGSFFRREGRPSEDAILTCRLIDRPLRPSFKKGLRNEIQVVATIMALNPDHLYDVVAINAASASTQLAGLPFSGPIGGVRVALIRGQWVAFPTHTELEDAVFDMVVAGRVLEDGDVAIMMVEAEATEKTIQLVKDGAEAPTEEVVAAGLDAAKPFIKVLCKAQADLAAKAAKPTGEFPVFLDYQDDVLEALSAAVRPELSAALTIAGKQDREAELDRVKALAAEKLLPEFEGREKEISAAYRALTKSLVRERVIAEKKRIDGRGVTDIRTLAAEVEAIPRVHGSALFERGETQILGVTTLNMLRMEQQLDTLSPVTRKRYMHNYNFPPYSVGETGRVGSPKRREIGHGALAERAIVPVLPTREEFPYAIRQVSEALGSNGSTSMGSVCASTMSLLNAGVPLKAPVAGIAMGLISQEINGETHYVALTDILGAEDAFGDMDFKVAGTKEFVTALQLDTKLDGIPASVLAAALKQARDARLHILDVMMEAIDTPDEMSPNAPRIITVKIPVDKIGEVIGPKRQMINQIQEDTGAEITIEDDGTIYIGAADGPAAEAARATINGIANPTSPEVGERILGSVVKTTTFGAFVSLLPGKDGLLHISQIRKLAGGKRVENVEDVLGVGQKVQVEIAEIDSRGKLSLIPVIEGEEAASDEKKDDAEQ”, for which the “soluble on expression in E. coli” value is on record as “soluble”. The value for “ASPNSPKDNTWIQAASLTWLMDMSSLLYQLISTRIPSFASPNGLHMREQTIDSNTGQIQIDNEHRLLRWDRRPPNDIFLNGFIPRVTNQNLSPVEDTHLLNYLRTNSPSIFVSTTRARYNNLGLEITPWTPHSANNNIIYRYEIFAPGGIDINASFSRNHNPFPNEDEITFPGGIRPEFIRSTYEYHNGEIVRIWINPNFINPSTLNDVSGPSNISKVFWHENHSEGNNMDSKGFILDLDYNQDFDMFAPNGEIPNNNLLNNNSLNVIQNSEYQIKNKKDRNIVVTLDSDYGGSPVESYKNFGFENQKWNIKYDSKKNAYKIYNRETPTLLLSWNSNSSNGEQVIRGYTESGSNNQYWTIEKNVNGFYKFRNLSDPSKILDLKDGNTLNKTPLVVSSENSSSSQEWLIEKTNYQTVKDGTYQVSSKLNENKVIEQISTNKVHIFSNSDKENQVWNLIYNPILKAYKIKSLKYPNYSLAWDSNNTRTIVAATGDYNDQYWLIERNEDNTYIIRNYENRKIVLDLSNGSTTDGNGLLGFEFHGGINQRWIIKPFSFNSIQDGIYQFMTVINQDLIADLTTNNYTIATKTNNYSSNQKWTVTYNDKKRAYKIRNLQHAHLSLAWDSNHSDKIFGATGDYDDQYWIPILQTDGSFIFRNYKNPNKIFGTNGQPINDIPLKAQDVTGQNNQKWYLRHLNSSNNFTGYFNISSKKNFNKIITMNSNKTQAVIFDNIGINNQSWKLKYNDNKNAYQIHILDNFLYFQGGHNIVATMRNVTNDDLRSYWYVEYNFNKDGFIIRNAFDTSYVLDVFQGNFANNTPIITYQNYLNDNQLWNFIPSLGVEPR” was “soluble”; that for “ATLDVRGGYRSGSHAYETRLKVSEGWQNGWWASMESNTWNTIHDNKKENAALNDVQVEVNYAIKLDDQWTVRPGMLTHFSSNGTRYGPYVKLSWDATKDLNFGIRYRYDWKAYRQQDLSGDMSRDNVHRWDGYVTYHINSDFTFAWQTTLYSKQNDYRYANHKKWATENAFVLQYHMTPDITPYIEYDYLDRQGVYNGRDNLSENSYRIGVSFKL” was “soluble”. Take “AVANILNRDYNRAQEILNGIKNPDATTYYLMAVVAARTNNLDVVINSLRESISLDSSMMKKAATDLEFAKYANDGGFKSLLRH”: the “soluble on expression in E. coli” value was “not soluble”. The value for “AVFRHTLLHFFERLQSNDIYYKFHNILFLKCEHTEQNAAVIAIARKHQAIWREKITAVLTEAVENQDLADDLDKETAVIFIKSTLDGLIWRWFSSCERFDLGKTAPRIIGIMMDNLENHPDLRRK” was “not soluble”.

On to “AVVATKVGATVMNANPFTLGHRYLIEQALAQCDHLHLFVVEEEASQFCYQERFALVQHGIADLSNITLHPSSQYIISRATFPDYFLKDSHIVDAAYLELDLRLFRQHIAPALAITHRFIGTEPFCPVTAEYNRKMHYWLQQAVMEADAINVVEIERKKVSNQAISASTVRQLFSERKWQQLLSMVPITTFNFLQKIANEP”, for which the “soluble on expression in E. coli” value is “not soluble”.

For the sequence “AYSELQMLSPSERQCVETVVNMGYSYECVLRAMKKKGENIEQILDYLFAH”, the “soluble on expression in E. coli” value was “soluble”.
